Test results from US20150353911.

Assays:
[1] = system: Compound 1
[2] = system: Compound 4
[3] = system: Compound 5
[4] = system: Compound 6
[5] = system: FVII-133
[6] = system: FVII-184

For thrombin, the “cleavage rate with 14 nM thrombin (HPLC, decrease of peptide peak area)” value [1] was “at least 10-fold increase in cleavage rate compared to that of Compound 2”, the “fraction cleaved and released with 1.4 nM thrombin (HPLC)” value [1] was 30% of Compound 1 was quickly cleaved and released and the “cleavage by 1.4 nM thrombin (HPLC)” value [2] was “Compound 1 was a better substrate for thrombin than Compounds 4 and 5”. For the same substance, the “cleavage by 1.4 nM thrombin (HPLC)” value [3] was “Compound 1 was a better substrate for thrombin than Compounds 4 and 5”, the “release of peptide IVGGQE with 1.4 nM thrombin (HPLC)” value [4] was “thrombin-mediated release of peptide IVGGQE from Compound 6 without PABC linker was not observed” and the “amidolytic activity (chromozyme t-PA substrate) before and after thrombin activation” value [5] was “FVII-212 displayed no activity prior to thrombin activation. Following thrombin activation, the amidolytic activity associated with FVII-212 was greater than that observed for equal molar levels of rFVIIa”. For the same substance, the “clotting activity by ROTEM in human hemophilia A blood” value [6] was “Inactivating the thrombin cleavage site of FVII133 considerably reduced the activity; as the activity of FVII-184, which only became detectable at 50 nM, was much lower than that of FVIIa”.
